Reference: patent US20240317834A1, “COMPOSITIONS AND METHODS FOR NEUROLOGICAL DISEASES” (CODA BIOTHERAPEUTICS, INC., priority 2020, published 2024)

Columns and labels:
rat DRG neurons = test: Rheobase shift and evoked action potentials in rat DRG neurons (current clamp); type: cell-based; settings: for Rheobase Shift; Rat DRG Neurons, Baseline: no ligand
In short: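 Rat DRG neurons expressing engineered receptors, whole-cell current clamp at RT. ECS at pH 7.3; K-gluconate internal at pH 7.2. 500 ms steps from −200 to 700 pA with and without ligand. Rheobase taken as the smallest depolarising step that fires an action potential; input resistance from negative steps.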

Lenti-X 293T cells = test: YFP fluorescence quenching anion reporter plate reader assay of engineered receptors stimulated with acetylcholine or a non-native ligand; type: cell-based; settings: for percent quench of YFP fluorescence, 30 nM TC-6683: TC-6683 30 nM; for percent quench of YFP fluorescence, 300 nM TC-6683: TC-6683 300 nM; for percent quench of YFP fluorescence, 3 uM TC-6683: TC-6683 3 uM; for percent quench of YFP fluorescence, 30 uM TC-6683: TC-6683 30 uM; for percent quench of YFP fluorescence, 100 uM TC-6683: TC-6683 100 uM; for percent quench of YFP fluorescence, 100 uM ach: acetylcholine 100 uM; for percent quench of YFP fluorescence, 300 uM ach: acetylcholine 300 uM; for percent quench of YFP fluorescence, 500 uM ach: acetylcholine 500 uM; for percent quench of YFP fluorescence, 1 mM ach: acetylcholine 1 mM; for percent quench of YFP fluorescence, 3 mM ach: acetylcholine 3 mM; for percent quench of YFP fluorescence, 10 mM ach: acetylcholine 10 mM
In short: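 YFP quench was followed for about 1 min 43 s after ligand delivered in iodide-based ECS, pH 7.2. Values are end-of-read fluorescence (last 10 s) divided by the pre-ligand baseline (15 s). Cells were LX293T, transfected with receptor DNA a day before the assay.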

B1: CODA1045: engineered chimeric LGIC receptor, R101W, Y210V in SEQ ID NO: 33 (protein)
chain: MRCSPGGVWLALAASLLHVSLQGEFQRKLYKELVKNYNPLERPVANDSQPLTVYFSLSLLQIMDVDEKNQVLTTNIWLQMSWTDHYLQWNVSEYPGVKTVWFPDGQIWKPDILLYNSADERFDATFHTNVLVNSSGHCQYLPPGIFKSSCPMDLKNFPMDVQTCKLKFGSWSYGGWSLDLQMQEADISGYIPNGEWDLVGIPGKRSERFVECCKEPYPDVTFTVTMRRRMGYYLIQMYIPSLLIVILSWISFWINMDAAPARVGLGITTVLTMTTQSSGSRASLPKVSYVKAIDIWMAVCLLFVFSALLEYAAVNFVSRQHKELLRFRRKRRHHKSPMLNLFQEDEAGEGRFNFSAYGMGPACLQAKDGISVKGANNSNTTNPPPAPSKSPEEMRKLFIQRAKKIDKISRIGFPMAFLIFNMFYWIIYKIVRREDVHNQ
modifications: synthetic sequence of chimeric LGIC
In the case of B1, the “Rheobase Shift; Rat DRG Neurons, +TC-5619 @ EC90” value (rat DRG neurons) is reported as 700 ± 0 pA, the “Rheobase Shift; Rat DRG Neurons, Baseline” value (rat DRG neurons) is reported as 141 ± 22 pA and the “YFP fluorescence quenching using CNL001” value (Lenti-X 293T cells; 1 nM CNL001, first column) is reported as 0.804%. The “YFP fluorescence quenching using CNL001” value (Lenti-X 293T cells; 1 nM CNL001, second column) was 11.275%, the “YFP fluorescence quenching using TC-5619/Bradanicline” value (Lenti-X 293T cells; 1 nM brd) was −1.431% and the “YFP fluorescence quenching using TC-5619/Bradanicline” value (Lenti-X 293T cells; 3 nM brd) was −14.993%. The “YFP fluorescence quenching using Varenicline” value (Lenti-X 293T cells; 3 nM var, first column) was 6.745, the “YFP fluorescence quenching using Varenicline” value (Lenti-X 293T cells; 3 nM var, second column) was 8.397 and the “YFP fluorescence quenching using CNL001” value (Lenti-X 293T cells; 10 nM CNL001, first column) was 15.843%. For the same molecule, the “YFP fluorescence quenching using CNL001” value (Lenti-X 293T cells; 10 nM CNL001, second column) was 16.619%, the “YFP fluorescence quenching using TC-5619/Bradanicline” value (Lenti-X 293T cells; 10 nM brd) was −5.52% and the “YFP fluorescence quenching using TC-5619/Bradanicline” value (Lenti-X 293T cells; 30 nM brd) was 15.49%. For the same molecule, the “YFP fluorescence quenching using Varenicline” value (Lenti-X 293T cells; 30 nM var, first column) was 14.1, the “YFP fluorescence quenching using Varenicline” value (Lenti-X 293T cells; 30 nM var, second column) was 19.095 and the “YFP fluorescence quenching using CNL001” value (Lenti-X 293T cells; 50 nM CNL001, first column) was 15.205%. The “YFP fluorescence quenching using CNL001” value (Lenti-X 293T cells; 50 nM CNL001, second column) was 18.771%, the “YFP fluorescence quenching using ABT-126” value (Lenti-X 293T cells; 50 nM abt) was −24.16% and the “YFP fluorescence quenching using CNL001” value (Lenti-X 293T cells; 100 nM CNL001, first column) was 9.332%. The “YFP fluorescence quenching using CNL001” value (Lenti-X 293T cells; 100 nM CNL001, second column) was 18.218%, the “YFP fluorescence quenching using ABT-126” value (Lenti-X 293T cells; 100 nM abt) was −24.7% and the “YFP fluorescence quenching using TC-5619/Bradanicline” value (Lenti-X 293T cells; 100 nM brd) was 72.105%. The “YFP fluorescence quenching using ABT-126” value (Lenti-X 293T cells; 300 nM abt) was −16.09%, the “YFP fluorescence quenching using TC-5619/Bradanicline” value (Lenti-X 293T cells; 300 nM brd) was 71.411% and the “YFP fluorescence quenching using Varenicline” value (Lenti-X 293T cells; 300 nM var, first column) was 16.83. The “YFP fluorescence quenching using Varenicline” value (Lenti-X 293T cells; 300 nM var, second column) was 21.507, the “YFP fluorescence quenching using Varenicline” value (Lenti-X 293T cells; 500 nM var, first column) was 21.586 and the “YFP fluorescence quenching using Varenicline” value (Lenti-X 293T cells; 500 nM var, second column) was 23.131. The “YFP fluorescence quenching using CNL001” value (Lenti-X 293T cells; 1 uM CNL001, first column) was 35.294%, the “YFP fluorescence quenching using CNL001” value (Lenti-X 293T cells; 1 uM CNL001, second column) was 36.542% and the “YFP fluorescence quenching using ABT-126” value (Lenti-X 293T cells; 1 uM abt) was −11.61%. For the same molecule, the “YFP fluorescence quenching using Varenicline” value (Lenti-X 293T cells; 1 uM var, first column) was 31.591, the “YFP fluorescence quenching using Varenicline” value (Lenti-X 293T cells; 1 uM var, second column) was 26.479 and the “percent quench of YFP fluorescence, 30 nM TC-6683” value (Lenti-X 293T cells) was 1.735%. The “percent quench of YFP fluorescence, 300 nM TC-6683” value (Lenti-X 293T cells) was 0.642%, the “percent quench of YFP fluorescence, 3 uM TC-6683” value (Lenti-X 293T cells) was 2.403% and the “percent quench of YFP fluorescence, 30 uM TC-6683” value (Lenti-X 293T cells) was 6.006%. The “percent quench of YFP fluorescence, 100 uM TC-6683” value (Lenti-X 293T cells) was −4.277%, the “percent quench of YFP fluorescence, 10 uM ach” value (Lenti-X 293T cells; acetylcholine 10 uM) was −2.52% and the “percent quench of YFP fluorescence, 100 uM ach” value (Lenti-X 293T cells) was −11.98%. For the same molecule, the “percent quench of YFP fluorescence, 300 uM ach” value (Lenti-X 293T cells) was −16.71%, the “percent quench of YFP fluorescence, 500 uM ach” value (Lenti-X 293T cells) was −12.87% and the “percent quench of YFP fluorescence, 1 mM ach” value (Lenti-X 293T cells) was −14.41%. The “percent quench of YFP fluorescence, 3 mM ach” value (Lenti-X 293T cells) was −7.4% and the “percent quench of YFP fluorescence, 10 mM ach” value (Lenti-X 293T cells) was −1.5%.

B2: CODA1048: engineered chimeric LGIC receptor, R101F, Y210F in SEQ ID NO: 33 (protein)
chain: MRCSPGGVWLALAASLLHVSLQGEFQRKLYKELVKNYNPLERPVANDSQPLTVYFSLSLLQIMDVDEKNQVLTTNIWLQMSWTDHYLQWNVSEYPGVKTVFFPDGQIWKPDILLYNSADERFDATFHTNVLVNSSGHCQYLPPGIFKSSCPMDLKNFPMDVQTCKLKFGSWSYGGWSLDLQMQEADISGYIPNGEWDLVGIPGKRSERFFECCKEPYPDVTFTVTMRRRMGYYLIQMYIPSLLIVILSWISFWINMDAAPARVGLGITTVLTMTTQSSGSRASLPKVSYVKAIDIWMAVCLLFVFSALLEYAAVNFVSRQHKELLRFRRKRRHHKSPMLNLFQEDEAGEGRFNFSAYGMGPACLQAKDGISVKGANNSNTTNPPPAPSKSPEEMRKLFIQRAKKIDKISRIGFPMAFLIFNMFYWIIYKIVRREDVHNQ
modifications: synthetic sequence of chimeric LGIC
For B2, the “Rheobase Shift; Rat DRG Neurons, +TC-5619 @ EC90” value (rat DRG neurons) was 590 ± 46 pA, the “Rheobase Shift; Rat DRG Neurons, Baseline” value (rat DRG neurons) was 120 ± 19 pA and the “YFP fluorescence quenching using CNL001” value (Lenti-X 293T cells; 1 nM CNL001, first column) was 9.114%. The “YFP fluorescence quenching using CNL001” value (Lenti-X 293T cells; 1 nM CNL001, second column) was 0.845%, the “YFP fluorescence quenching using TC-5619/Bradanicline” value (Lenti-X 293T cells; 1 nM brd) was −2.084% and the “YFP fluorescence quenching using TC-5619/Bradanicline” value (Lenti-X 293T cells; 3 nM brd) was −9.098%. The “YFP fluorescence quenching using Varenicline” value (Lenti-X 293T cells; 3 nM var, first column) was −17.119, the “YFP fluorescence quenching using Varenicline” value (Lenti-X 293T cells; 3 nM var, second column) was −13.234 and the “YFP fluorescence quenching using CNL001” value (Lenti-X 293T cells; 10 nM CNL001, first column) was 28.944%. The “YFP fluorescence quenching using CNL001” value (Lenti-X 293T cells; 10 nM CNL001, second column) was 53.629%, the “YFP fluorescence quenching using TC-5619/Bradanicline” value (Lenti-X 293T cells; 10 nM brd) was −2.587% and the “YFP fluorescence quenching using TC-5619/Bradanicline” value (Lenti-X 293T cells; 30 nM brd) was 55.818%. The “YFP fluorescence quenching using Varenicline” value (Lenti-X 293T cells; 30 nM var, first column) was −7.747, the “YFP fluorescence quenching using Varenicline” value (Lenti-X 293T cells; 30 nM var, second column) was 4.193 and the “YFP fluorescence quenching using CNL001” value (Lenti-X 293T cells; 50 nM CNL001, first column) was 68.581%. The “YFP fluorescence quenching using CNL001” value (Lenti-X 293T cells; 50 nM CNL001, second column) was 74.379%, the “YFP fluorescence quenching using ABT-126” value (Lenti-X 293T cells; 50 nM abt) was −23.28% and the “YFP fluorescence quenching using CNL001” value (Lenti-X 293T cells; 100 nM CNL001, first column) was 80.541%. The “YFP fluorescence quenching using CNL001” value (Lenti-X 293T cells; 100 nM CNL001, second column) was 80.774%, the “YFP fluorescence quenching using ABT-126” value (Lenti-X 293T cells; 100 nM abt) was −21.78% and the “YFP fluorescence quenching using TC-5619/Bradanicline” value (Lenti-X 293T cells; 100 nM brd) was 76.957%. The “YFP fluorescence quenching using ABT-126” value (Lenti-X 293T cells; 300 nM abt) was −19.35%, the “YFP fluorescence quenching using TC-5619/Bradanicline” value (Lenti-X 293T cells; 300 nM brd) was 74.268% and the “YFP fluorescence quenching using Varenicline” value (Lenti-X 293T cells; 300 nM var, first column) was 4.149. The “YFP fluorescence quenching using Varenicline” value (Lenti-X 293T cells; 300 nM var, second column) was 1.512, the “YFP fluorescence quenching using Varenicline” value (Lenti-X 293T cells; 500 nM var, first column) was −1.572 and the “YFP fluorescence quenching using Varenicline” value (Lenti-X 293T cells; 500 nM var, second column) was 3.71. The “YFP fluorescence quenching using CNL001” value (Lenti-X 293T cells; 1 uM CNL001, first column) was 83.143%, the “YFP fluorescence quenching using CNL001” value (Lenti-X 293T cells; 1 uM CNL001, second column) was 81.751% and the “YFP fluorescence quenching using ABT-126” value (Lenti-X 293T cells; 1 uM abt) was −16.33%. The “YFP fluorescence quenching using Varenicline” value (Lenti-X 293T cells; 1 uM var, first column) was 8.414, the “YFP fluorescence quenching using Varenicline” value (Lenti-X 293T cells; 1 uM var, second column) was 4.091 and the “percent quench of YFP fluorescence, 30 nM TC-6683” value (Lenti-X 293T cells) was −29.055%. For the same molecule, the “percent quench of YFP fluorescence, 300 nM TC-6683” value (Lenti-X 293T cells) was −33.935%, the “percent quench of YFP fluorescence, 3 uM TC-6683” value (Lenti-X 293T cells) was −24.613% and the “percent quench of YFP fluorescence, 30 uM TC-6683” value (Lenti-X 293T cells) was −21.752%. The “percent quench of YFP fluorescence, 100 uM TC-6683” value (Lenti-X 293T cells) was −22.815%, the “percent quench of YFP fluorescence, 100 uM ach” value (Lenti-X 293T cells) was −17.31% and the “percent quench of YFP fluorescence, 300 uM ach” value (Lenti-X 293T cells) was −13.7%. For the same molecule, the “percent quench of YFP fluorescence, 500 uM ach” value (Lenti-X 293T cells) was −10.1%, the “percent quench of YFP fluorescence, 1 mM ach” value (Lenti-X 293T cells) was 5.53% and the “percent quench of YFP fluorescence, 3 mM ach” value (Lenti-X 293T cells) was 68.61%. For the same molecule, the “percent quench of YFP fluorescence, 10 mM ach” value (Lenti-X 293T cells) was 78.22%.
